Results taken from paper PMC4606517.

Legend:
[1] = target: hAgo2 (single-molecule) (Homo sapiens) (UniProt Q9UKV8); assay: single-molecule FRET; conditions: 5'-phosphate on guide, C6-amino-U in guide (nt 9) and in target (opposite guide nt 17), Filter binding: 30 mM Tris pH 8.0, 0.1 M K acetate, 2 mM Mg acetate, 0.5 mM TCEP, 0.005% NP-40, 0.01 mg/ml yeast tRNA, room temp, 45 min, 0.1 nM target …
[2] = target: Ago2 wild type (Homo sapiens) (UniProt Q9UKV8); assay: filter binding; conditions: 5'-phosphate on guide; target nt 9 (N) = inosine; Filter binding: 30 mM Tris pH 8.0, 0.1 M K acetate, 2 mM Mg acetate, 0.5 mM TCEP, 0.005% NP-40, 0.01 mg/ml yeast tRNA, room temp, 45 min, 0.1 nM target …
Ago2 wild type (Homo sapiens), sequence (Q9UKV8 whole entry): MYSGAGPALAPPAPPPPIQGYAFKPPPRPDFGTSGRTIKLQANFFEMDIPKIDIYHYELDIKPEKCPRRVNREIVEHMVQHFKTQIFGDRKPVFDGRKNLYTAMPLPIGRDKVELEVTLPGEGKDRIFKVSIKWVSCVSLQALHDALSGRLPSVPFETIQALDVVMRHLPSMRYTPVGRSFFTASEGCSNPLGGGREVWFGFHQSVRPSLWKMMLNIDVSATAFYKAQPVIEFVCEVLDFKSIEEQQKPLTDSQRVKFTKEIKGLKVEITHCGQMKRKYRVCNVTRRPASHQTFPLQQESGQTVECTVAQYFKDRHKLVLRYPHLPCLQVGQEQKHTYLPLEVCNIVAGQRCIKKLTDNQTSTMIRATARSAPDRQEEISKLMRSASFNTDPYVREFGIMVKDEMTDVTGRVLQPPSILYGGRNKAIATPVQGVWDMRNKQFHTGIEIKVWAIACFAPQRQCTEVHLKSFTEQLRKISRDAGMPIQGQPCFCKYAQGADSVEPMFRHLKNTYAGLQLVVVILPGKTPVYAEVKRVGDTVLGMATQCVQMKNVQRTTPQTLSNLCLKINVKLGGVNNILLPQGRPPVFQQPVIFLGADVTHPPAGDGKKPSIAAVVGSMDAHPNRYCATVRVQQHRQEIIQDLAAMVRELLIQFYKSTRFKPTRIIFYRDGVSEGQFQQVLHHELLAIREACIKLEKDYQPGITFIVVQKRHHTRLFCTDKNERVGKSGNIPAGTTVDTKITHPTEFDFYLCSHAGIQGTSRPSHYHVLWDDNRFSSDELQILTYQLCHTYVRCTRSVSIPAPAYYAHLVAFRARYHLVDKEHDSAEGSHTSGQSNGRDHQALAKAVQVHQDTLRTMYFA

hAgo2 (single-molecule) (Homo sapiens), sequence (Q9UKV8 whole entry): as above

Sequence: UGAGGUAUUUUUUUUUUUUUUU / UUUUUUUUUUUUUUUUUUUUUUUUUUUUUUUACUACCUCUUUUUUUUUUUUUUUUUUUUUUUUUUUUUU [smFRET guide + t1U target]
- binding signal ([1]; dwell time, single exponential): 1.64 s

Sequence: UGAGGUAUUUUUUUUUUUUUUU / UUUUUUUUUUUUUUUUUUUUUUUUUUUUUUUACUACCUCAUUUUUUUUUUUUUUUUUUUUUUUUUUUUU [smFRET guide + t1DAP target]
- binding signal ([1]; long dwell time (55.4%), short 1.97 ± 0.24 s (44.6%), target nt 40 = 2,6-diaminopurine (written A)): 12.9 s

Sequence: UGAGGUAUUUUUUUUUUUUUUU / UUUUUUUUUUUUUUUUUUUUUUUUUUUUUUUACUACCUCAUUUUUUUUUUUUUUUUUUUUUUUUUUUUU [smFRET guide + t1A target]
- binding signal ([1]; long dwell time (50.2%), short 1.61 ± 0.29 s (49.8%)): 8.69 s

Sequence: UUCACAUUGCCCAAGUCUCUU / CAAUGUGANAA [guide + t1I target]
- Kd [2]: 1.7 nM
